Test results as given in patent US20230183352A1 (published 2023).

Columns and labels:
[1] = target: T1, Claudin 18.2 (CLDN18.2), expressed on CHOS-CLDN 18.2 / HEK293-CLDN 18.2 / HCC827-CLDN 18.2 cells (human, UniProt P56856-2 1-261); assay: cell-based or functional assay
[2] = target: T1, Claudin 18.2 (CLDN18.2), expressed on …; assay: FACS, CHOS-CLDN18.2 cells
Protocol: (§1) The initial concentration of the antibody was 20 μg/ml, it was diluted at 1:4, and incubated at 4° C. for 60 min.

[3] = target: T1, Claudin 18.2 (CLDN18.2), expressed on …; assay: FACS, CHOS-CLDN18.2 cells, 5 µg/ml
Protocol: as §1

[4] = target: T1, Claudin 18.2 (CLDN18.2), expressed on …; assay: FACS, CHOS-CLDN18.2 cells, 20 µg/ml
Protocol: as §1

[5] = target: T1, Claudin 18.2 (CLDN18.2), expressed on …; assay: FACS, CHOS-CLDN18.2 cells, 10 µg/ml
Protocol: (§2) The initial concentration of the antibody was 20 μg/mkit was diluted at 1:4, and incubated at 4° C. for 60 min.

[6] = target: T1, Claudin 18.2 (CLDN18.2), expressed on …; assay: FACS, CHOS-CLDN18.2 cells, 0.005 µg/ml
Protocol: as §1

[7] = target: T1, Claudin 18.2 (CLDN18.2), expressed on …; assay: FACS, CHOS-CLDN18.2 cells, 0.020 µg/ml
Protocol: as §1

[8] = target: T1, Claudin 18.2 (CLDN18.2), expressed on …; assay: FACS, CHOS-CLDN18.2 cells, 0.078 µg/ml
Protocol: as §1

[9] = target: T1, Claudin 18.2 (CLDN18.2), expressed on …; assay: FACS, CHOS-CLDN18.2 cells, 0.313 µg/ml
Protocol: as §1

[10] = target: T1, Claudin 18.2 (CLDN18.2), expressed on …; assay: FACS, CHOS-CLDN18.2 cells, 1.250 µg/ml
Protocol: as §1

[11] = target: T1, Claudin 18.2 (CLDN18.2), expressed on …; assay: FACS, CHOS-CLDN18.2 cells, 0 µg/ml (background)
Protocol: as §1

[12] = target: T1, Claudin 18.2 (CLDN18.2), expressed on …; assay: FACS, MFI on CHOS-CLDN18.2 over MFI on CHOS-CLDN18.1, 10 µg/ml
Protocol: as §2

- EC50 [2]: 0.156 µg/mL
- max [2]: 227000
- FACS reading [3]: 227000
- FACS reading [4]: 131000
- MFI [5]: 657000
- FACS reading [6]: 7790
- FACS reading [7]: 19300
- FACS reading [8]: 51400
- FACS reading [9]: 144000
- FACS reading [10]: 201000
- FACS reading [11]: 732
- CLDN18.2/CLDN18.1 (MFI ratio) [12]: 700
B1: QP14631461 (antibody, human IgG1, kappa, V domains shown)
VH: QVQLVQSGAEVKKPGASVKVSCKASGYTFTSYIMHWVRQAPGQGLEWMGYINPYNDGTKYNEKFKGRVTMTRDTSTSTVYMELSSLRSEDTAVYYCARLGFTTRNAMDYWGQGTLVTVSS
VL: DIVMTQSPDSLAVSLGERATINCKSSQSLLNSGNQKNYLAWYQQKPGQPPKLLIYGASTRESGVPDRFTGSGSGTDFTLTISSLQAEDVAVYYCQNDHSYPFTFGQGTKLEIKR
notes: also called QP14611463
- EC50 of killing, ADCC (PBMC, HEK293-CLDN18.2 cells) [1]: 0.0115 µg/mL
- Killing percentage, ADCC (PBMC, HEK293-CLDN18.2 cells), 0 µg/ml [1]: 4.88%
- Killing percentage, ADCC (PBMC, HEK293-CLDN18.2 cells), 0.0001024 µg/ml [1]: 4.3%
- Killing percentage, ADCC (PBMC, HEK293-CLDN18.2 cells), 0.000512 µg/ml [1]: 5.65%
- Killing percentage, ADCC (PBMC, HEK293-CLDN18.2 cells), 0.00256 µg/ml [1]: 10.2%
- Killing percentage, ADCC (PBMC, HEK293-CLDN18.2 cells), 0.0128 µg/ml [1]: 23.4%
- Killing percentage, ADCC (PBMC, HEK293-CLDN18.2 cells), 0.064 µg/ml [1]: 39.3%
- Killing percentage, ADCC (PBMC, HEK293-CLDN18.2 cells), 0.32 µg/ml [1]: 43.8%
- Killing percentage, ADCC (PBMC, HEK293-CLDN18.2 cells), 1.6 µg/ml [1]: 43.4%
- Killing percentage, ADCC (PBMC, HEK293-CLDN18.2 cells), 8 µg/ml [1]: 46.3%
- Killing percentage, ADCC (PBMC, HEK293-CLDN18.2 cells), 40 µg/ml [1]: 28.6%
